Test results: patent US20250320312A1 (OXITOPE PHARMA B V, published 2025)

T1: Peptide 8: Biotin-AEAAAKEAAAKEAAAKEAAAKAAA-Tyr-acid (N-terminal biotin; C-terminal acid)
T1 construct: control peptide without PC
T1 peptide: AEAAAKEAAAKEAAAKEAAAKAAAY

T2: Peptide 4: Biotin-AGGGGSGGGGSGGGGSAAA-Tyr-acid (N-terminal biotin; C-terminal acid)
T2 construct: control peptide without PC
T2 peptide: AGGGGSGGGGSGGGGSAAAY

B1: PcOxP_DB01_B07 (scFv, V domains shown)
VH: EVQLLESGGGLVQPGGSLRLSCAASGFTFSDYYMEWVRQAPGKGLEWVAASRNKANDYTTEYADSVKGRFTISRDNSKNTLYLQMNSLRAEDTAVYYCARDYYGSSYWYFDVWGQGTLVTVSS
VL: DIQMTQSPSSLSASVGDRVTITCTASESLYSSKHKVHYLAWYQQKPGKAPKLLIYGASNRYIGVPSRFSGSGSGTDFTLTISSLQPEDFATYYCAQFYSYPLTFGGGTKVEIK
notes: scFv in periplasmic extract
B2: PcOxP_DB01_A06 (scFv, V domains shown)
VH: EVQLLESGGGLVQPGGSLRLSCAASGFTFSDYYMEWVRQAPGKGLEWVAASRNKANDYTTEYADSVKGRFTISRDNSKNTLYLQMNSLRAEDTAVYYCARDYYGSSYWYFDVWGQGTLVTVSS
VL: DIQMTQSPSSLSASVGDRVTITCTASESLYSSKHKVHYLAWYQQKPGKAPKLLIYGASNRYIGVPSRFSGSGSGTDFTLTISSLQPEDFATYYCAEFYSYPLTFGGGTKVEIK
notes: scFv in periplasmic extract
B3: PcOxP_DB01_C12 (scFv, V domains shown)
VH: EVQLLESGGGLVQPGGSLRLSCAASGFTFSDFYMEWVRQAPGKGLEWVAASRNKANDYTTELADSVKGRFTISRDNSKNTLYLQMNSLRAEDTAVYYCARDYYGSSYWYFDVWGQGTLVTVSS
VL: DIQMTQSPSSLSASVGDRVTITCTASESLYSSKHKVHYLAWYQQKPGKAPKLLIYGAANRYIGVPSRFSGSGSGTDFTLTISSLQPEDFATYYCAQFYVYPLTFGGGTKVEIK
notes: scFv in periplasmic extract
B4: PcOxP_DB01_C04 (scFv, V domains shown)
VH: EVQLLESGGGLVQPGGSLRLSCAASGFQFSDFYMEWVRQAPGKGLEWVAASRNKANDYTTEYADSVKGRFTISRDNSKNTLYLQMNSLRAEDTAVYYCARDYYGSSYWYFDVWGQGTLVTVSS
VL: DIQMTQSPSSLSASVGDRVTITCTASESLYSSKHKVHYLAWYQQKPGKAPKLLIYGASNRYIGVPSRFSGSGSGTDFTLTISSLQPEDFATYYCAQFYYYPLTFGGGTKVEIK
notes: scFv in periplasmic extract
B5: PcOxP_DB01_C05 (scFv, V domains shown)
VH: EVQLLESGGGLVQPGGSLRLSCAASGFTFSDGYMEWVRQAPGKGLEWVAASRNKANDYTTEYADSVKGRFTISRDNSKNTLYLQMNSLRAEDTAVYYCARDYYGSSYWYFDVWGQGTLVTVSS
VL: DIQMTQSPSSLSASVGDRVTITCTASESLYSSKHKVHYLAWYQQKPGKAPKLLIYGSSNRYIGVPSRFSGSGSGTDFTLTISSLQPEDFATYYCAQFYAYPLTFGGGTKVEIK
notes: scFv in periplasmic extract
B6: PcOxP_DB01_C01 (scFv, V domains shown)
VH: EVQLLESGGGLVQPGGSLRLSCAASGFTFSDFYMEWVRQAPGKGLEWVAASRNKANDYTTEYADSVKGRFTISRDNSKNTLYLQMNSLRAEDTAVYYCARDYYGSSYWYFDVWGQGTLVTVSS
VL: DIQMTQSPSSLSASVGDRVTITCVASESLYSSKHKVHYLAWYQQKPGKAPKLLIYGASNRYIGVPSRFSGSGSGTDFTLTISSLQPEDFATYYCAQFYSYPLTFGGGTKVEIK
notes: scFv in periplasmic extract
B7: PcOxP_DB01_B05 (scFv, V domains shown)
VH: EVQLLESGGGLVQPGGSLRLSCAASGFTASDFYMEWVRQAPGKGLEWVAASRNKWNDYTTEYADSVKGRFTISRDNSKNTLYLQMNSLRAEDTAVYYCARDYYGSSYWYFDVWGQGTLVTVSS
VL: DIQMTQSPSSLSASVGDRVTITCTASESLYSSKHKVHYLAWYQQKPGKAPKLLIYGASSLQIGVPSRFSGSGSGTDFTLTISSLQPEDFATYYCAQFYSYPLTFGGGTKVEIK
notes: scFv in periplasmic extract
B8: PcOxP_DB01_C03 (scFv, V domains shown)
VH: EVQLLESGGGLVQPGGSLRLSCAASGFTFSDQYMEWVRQAPGKGLEWVAASRNKANDYTTEYADSVKGRFTISRDNSKNTLYLQMNSLRAEDTAVYYCARDYYGSSYWYFDVWGQGTLVTVSS
VL: DIQMTQSPSSLSASVGDRVTITCTASESLYSSKHKVHYLAWYQQKPGKAPKLLIYGASNRYIGVPSRFSGSGSGTDFTLTISSLQPEDFATYYCAQFYQYPLTFGGGTKVEIK
notes: scFv in periplasmic extract
B9: PcOxP_DB01_C08 (scFv, V domains shown)
VH: EVQLLESGGGLVQPGGSLRLSCAASGFTFSDGYMEWVRQAPGKGLEWVAASRNKANDYTTEYADSVKGRFTISRDNSKNTLYLQMNSLRAEDTAVYYCARDYYASSYWYFDVWGQGTLVTVSS
VL: DIQMTQSPSSLSASVGDRVTITCRASESISSSKNKVHYLAWYQQKPGKAPKLLIYGASNRYYGVPSRFSGSGSGTDFTLTISSLQPEDFATYYCAQFYSYPLTFGGGTKVEIK
notes: scFv in periplasmic extract
B10: PcOxP_DB01_B11 (scFv, V domains shown)
VH: EVQLLESGGGLVQPGGSLRLSCAASGFTFEDFYMEWVRQAPGKGLEWVAASRNKANDYTTEYADSVKGRFTISRDNSKNTLYLQMNSLRAEDTAVYYCARDYFGSSYWYFDVWGQGTLVTVSS
VL: DIQMTQSPSSLSASVGDRVTITCTASESLYSSKHKVHYLAWYQQKPGKAPKLLIYGASNRYHGVPSRFSGSGSGTDFTLTISSLQPEDFATYYCAQFYSYPLTFGGGTKVEIK
notes: scFv in periplasmic extract
B11: PcOxP_DB01_B01 (scFv, V domains shown)
VH: EVQLLESGGGLVQPGGSLRLSCAASGFTFSDQYIEWVRQAPGKGLEWVAASRNKANDYTTEYADSVKGRFTISRDNSKNTLYLQMNSLRAEDTAVYYCARDYLGSSYWYFDVWGQGTLVTVSS
VL: DIQMTQSPSSLSASVGDRVTITCTASESLYSSKHKVHYLAWYQQKPGKAPKLLIYGASHRYIGVPSRFSGSGSGTDFTLTISSLQPEDFATYYCAQFYAYPLTFGGGTKVEIK
notes: scFv in periplasmic extract
B12: PcOxP_DB01_B09 (scFv, V domains shown)
VH: EVQLLESGGGLVQPGGSLRLSCAASGFTFSDYYMEWVRQAPGKGLEWVAASRNKANDYTTEYADSVKGRFTISRDNSKNTLYLQMNSLRAEDTAVYYCARDYYGSSYWYFDVWGQGTLVTVSS
VL: DIQMTQSPSSLSASVGDRVTITCTASESLYSSKHKVHYLAWYQQKPGKAPKLLIYGASNRYTGVPSRFSGSGSGTDFTLTISSLQPEDFATYYCAQFYHYPLTFGGGTKVEIK
notes: scFv in periplasmic extract
B13: PcOxP_DB01_A12 (scFv, V domains shown)
VH: EVQLLESGGGLVQPGGSLRLSCAASGFGFSDFYMEWVRQAPGKGLEWVAASRNKWNDYTTEYADSVKGRFTISRDNSKNTLYLQMNSLRAEDTAVYYCARDYYGSSYWYYDVWGQGTLVTVSS
VL: DIQMTQSPSSLSASVGDRVTITCTASESLYSSKHKVHYLAWYQQKPGKAPKLLIYGASNREIGVPSRFSGSGSGTDFTLTISSLQPEDFATYYCQQFYSYPLTFGGGTKVEIK
notes: scFv in periplasmic extract
B14: PcOxP_DB01_C06 (scFv, V domains shown)
VH: EVQLLESGGGLVQPGGSLRLSCAASGFEFSDNYMEWVRQAPGKGLEWVAASRNKANDYTTEYADSVKGRFTISRDNSKNTLYLQMNSLRAEDTAVYYCARDYYGSSYWYFDVWGQGTLVTVSS
VL: DIQMTQSPSSLSASVGDRVTITCTASESLYSSKHKVHYLAWYQQKPGKAPKLLIYGASNRFIGVPSRFSGSGSGTDFTLTISSLQPEDFATYYCAQFYYYPLTFGGGTKVEIK
notes: scFv in periplasmic extract
B15: PcOxP_DB01_B08 (scFv, V domains shown)
VH: EVQLLESGGGLVQPGGSLRLSCAASGFTFSDSYMEWVRQAPGKGLEWVAASRNKANDYTTSYADSVKGRFTISRDNSKNTLYLQMNSLRAEDTAVYYCARDYYGSSYWYFDVWGQGTLVTVSS
VL: DIQMTQSPSSLSASVGDRVTITCTASESLYSSKHKVHYLAWYQQKPGKAPKLLIYGASNRYIGVPSRFSGSGSGTDFTLTISSLQPEDFATYYCAQFYSYPLTFGGGTKVEIK
notes: scFv in periplasmic extract
B16: PcOxP_DB01_B04 (scFv, V domains shown)
VH: EVQLLESGGGLVQPGGSLRLSCAASGFTFSDGYMEWVRQAPGKGLEWVAASRNKANDYTTEYADSVKGRFTISRDNSKNTLYLQMNSLRAEDTAVYYCARDYYGSSYWYFDVWGQGTLVTVSS
VL: DIQMTQSPSSLSASVGDRVTITCTASESLYSSKHKVHYLAWYQQKPGKAPKLLIYGASNRYIGVPSRFSGSGSGTDFTLTISSLQPEDFATYYCAQFYSYPLTFGGGTKVEIK
notes: scFv in periplasmic extract

How the values were obtained:
Test in all cases: scFv ELISA
[1] = molecular target: Peptide 5: Biotin-…-[Tyr(PC)]-acid
[2] = molecular target: Peptide 1: Biotin-…-[Tyr(PC)]-acid
[3] = molecular target: BSA (UniProt P02769)
Sequence of BSA (P02769 25-607 limits assumed): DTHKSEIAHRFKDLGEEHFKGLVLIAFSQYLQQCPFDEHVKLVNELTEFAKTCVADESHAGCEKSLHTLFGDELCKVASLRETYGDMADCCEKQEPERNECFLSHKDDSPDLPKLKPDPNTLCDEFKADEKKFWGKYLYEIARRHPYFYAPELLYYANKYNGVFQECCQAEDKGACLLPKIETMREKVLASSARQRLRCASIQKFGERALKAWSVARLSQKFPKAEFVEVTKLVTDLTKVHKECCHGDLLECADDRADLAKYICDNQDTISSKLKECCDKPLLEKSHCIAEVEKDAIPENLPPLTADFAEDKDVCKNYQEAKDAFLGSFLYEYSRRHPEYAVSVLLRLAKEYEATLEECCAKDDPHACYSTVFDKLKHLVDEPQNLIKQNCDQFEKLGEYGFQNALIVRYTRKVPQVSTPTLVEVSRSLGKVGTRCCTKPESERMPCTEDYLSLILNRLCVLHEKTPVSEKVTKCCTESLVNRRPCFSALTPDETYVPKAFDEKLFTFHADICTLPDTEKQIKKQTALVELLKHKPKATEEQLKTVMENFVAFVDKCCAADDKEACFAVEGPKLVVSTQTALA

[4] = molecular target: T1, Peptide 8: …
Experimental: (§1) For ELISA analysis of scFv binding, 96-well polystyrene plates were coated with Peptide 1, 4, 5, 8 or 100 μL BSA (10 μg/mL) in PBS at 4° C. overnight. Plates were washed three times with PBS-Tween and blocked with 100 μL 1% BSA-TBS for 1 hour at room temperature. 96-well streptavidin coated plates were coated with 100 μL biotinylated PC-peptides (1 μg/mL) in PBS for 1 hour at room temperature.
(§2) All plates were washed three times with PBS-Tween before 40 μL aliquots of PPE were added to assay plates along with 50 μL 10% BSA, and plates were incubated for 1 hour at room temperature. After washing, […] HRP conjugated anti-V5 in 5% BSA was added, and plates were incubated at room temperature for 30 mins. Plates were washed and 100 μL TMB substrate was added. Color was left to develop at room temperature before the reaction was stopped with 100 μL 1N HCl. The amount of scFv bound to each well was quantitated from absorbance measurement at 450 nm (OD450).

[5] = molecular target: T2, Peptide 4: …
Experimental: as §1, §2

| Binder | OD450 [1] | OD450 [2] | OD450 [3] | OD450 [4] | OD450 [5] |
| --- | --- | --- | --- | --- | --- |
| B1 | 1.36 OD450 | 1.07 OD450 | 0.11 OD450 | 0.05 OD450 | 0.06 OD450 |
| B2 | 1.18 OD450 | 0.74 OD450 | 0.1 OD450 | 0.06 OD450 | 0.06 OD450 |
| B3 | 1.18 OD450 | 0.88 OD450 | 0.08 OD450 | 0.05 OD450 | 0.05 OD450 |
| B4 | 1.42 OD450 | 1.38 OD450 | 0.08 OD450 | 0.05 OD450 | 0.05 OD450 |
| B5 | 1.11 OD450 | 0.79 OD450 | 0.11 OD450 | 0.06 OD450 | 0.06 OD450 |
| B6 | 1.13 OD450 | 0.71 OD450 | 0.11 OD450 | 0.05 OD450 | 0.06 OD450 |
| B7 | 0.74 OD450 | 0.23 OD450 | 0.1 OD450 | 0.05 OD450 | 0.05 OD450 |
| B8 | 1.37 OD450 | 0.98 OD450 | 0.1 OD450 | 0.05 OD450 | 0.06 OD450 |
| B9 | 0.79 OD450 | 0.38 OD450 | 0.1 OD450 | 0.05 OD450 | 0.06 OD450 |
| B10 | 1.32 OD450 | 1.11 OD450 | 0.09 OD450 | 0.04 OD450 | 0.05 OD450 |
| B11 | 0.9 OD450 | 0.87 OD450 | 0.1 OD450 | 0.05 OD450 | 0.07 OD450 |
| B12 | 1.42 OD450 | 1 OD450 | 0.1 OD450 | 0.05 OD450 | 0.05 OD450 |
| B13 | 1.04 OD450 | 0.29 OD450 | 0.09 OD450 | 0.05 OD450 | 0.06 OD450 |
| B14 | 1.31 OD450 | 1.18 OD450 | 0.08 OD450 | 0.05 OD450 | 0.05 OD450 |
| B15 | 0.89 OD450 | 0.41 OD450 | 0.1 OD450 | 0.05 OD450 | 0.06 OD450 |
| B16 | 1.02 OD450 | 0.57 OD450 | 0.08 OD450 | 0.05 OD450 | 0.06 OD450 |
